Several values for one entry are separate records, joined by “and”; a condition that tells them apart may be missing. Equal values may be shown once.
Legend:
[1] = biological target: T1, CD3 epsilon on human T-cells (human, UniProt P07766 23-207); assay: 1-hour 37 °C T-cell binding assay
T1 construct: part of the TCR-CD3 complex on T cells; also called CD3 on T cells

mouse MSLN = biological target: T2, mouse MSLN (mouse, UniProt Q61468 298-600, limits assumed); assay: not described (study MSLN-00922)
T2 construct: also called corresponding mouse antigen
T2 sequence (looked up): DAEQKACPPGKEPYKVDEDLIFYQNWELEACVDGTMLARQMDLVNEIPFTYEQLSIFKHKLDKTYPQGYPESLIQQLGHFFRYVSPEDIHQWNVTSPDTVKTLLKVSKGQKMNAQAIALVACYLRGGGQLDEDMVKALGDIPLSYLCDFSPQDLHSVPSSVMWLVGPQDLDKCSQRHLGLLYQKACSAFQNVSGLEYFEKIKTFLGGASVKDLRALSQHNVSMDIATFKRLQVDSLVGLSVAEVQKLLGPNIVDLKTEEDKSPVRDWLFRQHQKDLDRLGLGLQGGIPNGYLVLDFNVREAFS

mouse CD3 = biological target: T3, mouse CD3 (mouse, UniProt P22646 22-108); assay: not described (study MSLN-00922)
T3 construct: also called corresponding mouse antigen
T3 sequence (looked up): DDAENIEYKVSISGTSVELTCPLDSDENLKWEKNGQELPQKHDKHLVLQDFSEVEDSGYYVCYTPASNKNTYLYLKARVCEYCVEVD

recombinant CD3 [2] = biological target: T4, recombinant CD3 (UniProt P07766 23-126); assay: SPR after forced degradation
T4 construct: also called CD3 (SPR)

[3] = biological target: T5, MSNW10, recombinant full length human MSLN (human, UniProt Q13421 296-598); assay: SPR after forced degradation
T5 construct: also called MSNW10.002; FL-MSLN

recombinant CD3 [4] = biological target: T4, recombinant CD3; assay: SPR after forced degradation; after pH 5 (Iso) forced degradation
[5] = biological target: T5, MSNW10, recombinant full length human …; assay: as above
[6] = biological target: T6, MSNW11, recombinant soluble (shed) MSLN lacking the C-terminal 7 AAs (human, UniProt Q13421 296-591); assay: SPR
T6 construct: domain: soluble MSLN lacking the C-terminal 7 AAs; also called MSNW11.002; soluble MSLN

[7] = biological target: human MSLN on the cell surface (human, UniProt Q13421 296-598); assay: cell-based or functional assay
[8] = biological target: T5, MSNW10, recombinant full length human …; assay: SPR, recombinant full-length human MSLN
recombinant CD3 [9] = biological target: T4, recombinant CD3; assay: SPR, recombinant CD3
[10] = biological target: T7, MSLN with Met593Val on cells homozygous for SNP rs1135210 (SNP G|G) (human, UniProt Q13421 296-598); assay: binding to homozygous SNP-positive cells
T7 construct: also called homozygous SNP-positive cells; BxPC3, NCI-H322
T7 sequence (Q13421 other isoform, or with tags, fused parts or gaps M593V M593V limits assumed): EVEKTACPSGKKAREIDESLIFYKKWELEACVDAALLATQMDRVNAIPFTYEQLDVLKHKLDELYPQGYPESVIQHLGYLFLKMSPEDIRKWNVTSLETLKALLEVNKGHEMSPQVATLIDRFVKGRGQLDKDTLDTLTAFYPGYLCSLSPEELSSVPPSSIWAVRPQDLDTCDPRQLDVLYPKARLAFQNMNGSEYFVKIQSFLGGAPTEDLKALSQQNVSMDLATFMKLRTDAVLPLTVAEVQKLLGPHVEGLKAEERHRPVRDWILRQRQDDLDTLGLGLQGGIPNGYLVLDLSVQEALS

human MSLN on the cell surface, sequence (Q13421 other isoform, or with tags, fused parts or gaps limits assumed): as the sequence (Q13421 other isoform, or with tags, fused parts or gaps M593V M593V limits assumed) above, with V298M counted along it
T5 sequence (Q13421 other isoform, or with tags, fused parts or gaps limits assumed): as the sequence (Q13421 other isoform, or with tags, fused parts or gaps M593V M593V limits assumed) above, with V298M counted along it
T4 sequence (P07766 23-126): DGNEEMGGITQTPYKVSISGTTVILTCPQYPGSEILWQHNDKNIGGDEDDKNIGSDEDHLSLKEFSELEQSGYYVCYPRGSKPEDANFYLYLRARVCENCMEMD
T6 sequence (Q13421 other isoform, or with tags, fused parts or gaps limits assumed): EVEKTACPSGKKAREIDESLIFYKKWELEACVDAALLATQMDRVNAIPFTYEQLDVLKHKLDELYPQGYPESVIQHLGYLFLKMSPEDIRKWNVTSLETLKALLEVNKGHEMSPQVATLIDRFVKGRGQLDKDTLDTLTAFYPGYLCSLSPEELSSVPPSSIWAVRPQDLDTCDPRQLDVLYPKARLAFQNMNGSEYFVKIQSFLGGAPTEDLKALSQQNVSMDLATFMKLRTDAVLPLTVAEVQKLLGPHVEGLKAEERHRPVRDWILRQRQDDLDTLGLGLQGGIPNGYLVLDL
T1 sequence (P07766 23-207 limits assumed): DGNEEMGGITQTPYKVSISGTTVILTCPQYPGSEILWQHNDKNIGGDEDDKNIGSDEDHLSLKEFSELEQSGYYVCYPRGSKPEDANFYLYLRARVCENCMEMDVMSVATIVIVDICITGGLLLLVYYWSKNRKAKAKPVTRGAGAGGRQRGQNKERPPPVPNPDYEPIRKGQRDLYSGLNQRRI

B1: MNC3B304 (bispecific antibody, human IgG1, kappa, L234A L235A)
scFv: DIQMTQSPSSLSASVGDRVTITCRARQSIGTAIHWYQQKPGKAPKLLIKYASESISGVPSRFSGSGSGTDFTLTISSLQPEDFATYYCQQSGSWPYTFGQGTKLEIKGGSEGKSSGSGSESKSTGGSEVQLVESGGGLVKPGGSLRLSCAASGFTFSRYNMNWVRQAPGKGLEWVSSISTSSNYIYYADSVKGRFTFSRDNAKNSLDLQMSGLRAEDTAIYYCTRGWGPFDYWGQGTLVTVSSEPKSSDKTHTCPPCPAPEAAGGPSVFLFPPKPKDTLMISRTPEVTCVVVSVSHEDPEVKFNWYVDGVEVHNAKTKPREEQYNSTYRVVSVLTVLHQDWLNGKEYKCKVSNKALPAPIEKTISKAKGQPREPQVYTLPPSREEMTKNQVSLWCLVKGFYPSDIAVEWESNGQPENNYKTTPPVLDSDGSFFLYSKLTVDKSRWQQGNVFSCSVMHEALHNHYTQKSLSLSPGK
heavy: QVQLVESGPGQVKPSQTLSLTCAISGDSVSSNSAAWNWIRQSPSRGLEWLGRTYYRSKWYNDYAVSVKSRITINPDTSKNQFSLQLNSVTPEDTAVYYCARRDYSSGGFDYWGQGTTVTVSSASTKGPSVFPLAPSSKSTSGGTAALGCLVKDYFPEPVTVSWNSGALTSGVHTFPAVLQSSGLYSLSSVVTVPSSSLGTQTYICNVNHKPSNTKVDKKVEPKSCDKTHTCPPCPAPEAAGGPSVFLFPPKPKDTLMISRTPEVTCVVVSVSHEDPEVKFNWYVDGVEVHNAKTKPREEQYNSTYRVVSVLTVLHQDWLNGKEYKCKVSNKALPAPIEKTISKAKGQPREPQVYTLPPSREEMTKNQVSLSCAVKGFYPSDIAVEWESNGQPENNYKTTPPVLDSDGSFFLVSKLTVDKSRWQQGNVFSCSVMHEALHNRFTQKSLSLSPGK
light: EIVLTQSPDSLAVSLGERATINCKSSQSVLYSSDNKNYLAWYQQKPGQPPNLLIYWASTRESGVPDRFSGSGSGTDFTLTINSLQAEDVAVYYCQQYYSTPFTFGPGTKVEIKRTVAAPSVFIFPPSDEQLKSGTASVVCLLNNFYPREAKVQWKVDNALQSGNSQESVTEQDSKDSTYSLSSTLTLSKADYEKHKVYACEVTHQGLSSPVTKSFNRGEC
notes: also called mrMSLN-MSNB457 x W245LH, KiH; CD3W245 LH containing Bipod
EC50 [1]: > 100 nM | binding result (mouse MSLN): no binding | binding result (mouse CD3): no binding | Kd (recombinant CD3 [2]): 0.13 nM and 0.17 nM and 0.14 nM | Kd [3]: 5.22 nM and 4.92 nM and 4.76 nM and 5.03 nM | Kd (recombinant CD3 [4]): 0.13 nM | Kd [5]: 4.7 nM | binding result [6]: no binding | cytotoxicity EC50, OVCAR-8 K1/C8 MSLN medium cells, Incucyte 72 hours, 1:1 E:T [7]: 1.2 nM | cytotoxicity EC50, OVCAR-8 MSLN high cells, Incucyte 72 hours, 1:1 E:T [7]: 0.24 nM | cytotoxicity EC50, SK-OV-3 MSLN low cells, Incucyte 72 hours, 1:1 E:T [7]: 103 nM | Kd [8]: 4.64 nM | Kd (recombinant CD3 [9]): 0.12 nM | binding result [10]: no binding

Source: US20240166737A1 (Janssen / Centocor, published 2024)
